Residue numbers refer to the chain shown, from its start. Numbered stars: 1 amine (or outer) side, 2 acyl side, 3 side chain; on linkers, the order of the positions; unused ones are H or OH. Square brackets hold non-standard residues; d marks the D form. Side chains are listed from the residue outwards. Ends that are not written are not given here. * marks the point of attachment. C20 diacid = O=C(O)CCCCCCCCCCCCCCCCCCC(=O)*; γGlu = O=C(O)[C@H](CCC(=O)[*:2])N[*:1]; AEEA = NCCOCCOCC(=O)O; Aib = CC(C)(N)C(=O)O
T1: human GIP receptor (human, UniProt P48546 22-466)
T1 sequence (looked up): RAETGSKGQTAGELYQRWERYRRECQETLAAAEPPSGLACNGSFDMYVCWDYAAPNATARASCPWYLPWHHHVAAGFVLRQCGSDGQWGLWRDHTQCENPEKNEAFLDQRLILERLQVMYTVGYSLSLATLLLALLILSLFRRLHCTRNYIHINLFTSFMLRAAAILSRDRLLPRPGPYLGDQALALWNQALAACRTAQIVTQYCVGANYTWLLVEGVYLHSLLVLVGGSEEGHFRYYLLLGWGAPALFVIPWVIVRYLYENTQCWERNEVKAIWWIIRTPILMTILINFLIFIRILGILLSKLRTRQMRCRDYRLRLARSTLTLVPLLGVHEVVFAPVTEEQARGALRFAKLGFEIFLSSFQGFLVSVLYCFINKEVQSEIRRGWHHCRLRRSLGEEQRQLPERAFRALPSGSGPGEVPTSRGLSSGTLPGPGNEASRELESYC

B1: Example 51 (peptide)
peptide: Y[Aib]EGTFTSDYSILLDKK([AEEA-AEEA-γGlu-C20 diacid])AQ[Aib]AFIEYLIEGG-NH2
modifications: N-terminus assumed
SMILES: CC[C@H](C)[C@H](NC(=O)[C@H](CC(C)C)NC(=O)[C@H](Cc1ccc(O)cc1)NC(=O)[C@H](CCC(=O)O)NC(=O)[C@@H](NC(=O)[C@H](Cc1ccccc1)NC(=O)[C@H](C)NC(=O)C(C)(C)NC(=O)[C@H](CCC(N)=O)NC(=O)[C@H](C)NC(=O)[C@H](CCCCNC(=O)COCCOCCNC(=O)COCCOCCNC(=O)CC[C@H](NC(=O)CCCCCCCCCCCCCCCCCCC(=O)O)C(=O)O)NC(=O)[C@H](CCCCN)NC(=O)[C@H](CC(=O)O)NC(=O)[C@H](CC(C)C)NC(=O)[C@H](CC(C)C)NC(=O)[C@@H](NC(=O)[C@H](CO)NC(=O)[C@H](Cc1ccc(O)cc1)NC(=O)[C@H](CC(=O)O)NC(=O)[C@H](CO)NC(=O)[C@@H](NC(=O)[C@H](Cc1ccccc1)NC(=O)[C@@H](NC(=O)CNC(=O)[C@H](CCC(=O)O)NC(=O)C(C)(C)NC(=O)[C@@H](N)Cc1ccc(O)cc1)[C@@H](C)O)[C@@H](C)O)[C@@H](C)CC)[C@@H](C)CC)C(=O)N[C@@H](CCC(=O)O)C(=O)NCC(=O)NCC(N)=O
B2: Example 50 (peptide)
peptide: Y[Aib]EGTFTSDYSILLDKK([AEEA-AEEA-γGlu-C20 diacid])AQ[Aib]AFIEYLIEGGPSSG-NH2
modifications: N-terminus assumed
SMILES: CC[C@H](C)[C@H](NC(=O)[C@H](CC(C)C)NC(=O)[C@H](Cc1ccc(O)cc1)NC(=O)[C@H](CCC(=O)O)NC(=O)[C@@H](NC(=O)[C@H](Cc1ccccc1)NC(=O)[C@H](C)NC(=O)C(C)(C)NC(=O)[C@H](CCC(N)=O)NC(=O)[C@H](C)NC(=O)[C@H](CCCCNC(=O)COCCOCCNC(=O)COCCOCCNC(=O)CC[C@H](NC(=O)CCCCCCCCCCCCCCCCCCC(=O)O)C(=O)O)NC(=O)[C@H](CCCCN)NC(=O)[C@H](CC(=O)O)NC(=O)[C@H](CC(C)C)NC(=O)[C@H](CC(C)C)NC(=O)[C@@H](NC(=O)[C@H](CO)NC(=O)[C@H](Cc1ccc(O)cc1)NC(=O)[C@H](CC(=O)O)NC(=O)[C@H](CO)NC(=O)[C@@H](NC(=O)[C@H](Cc1ccccc1)NC(=O)[C@@H](NC(=O)CNC(=O)[C@H](CCC(=O)O)NC(=O)C(C)(C)NC(=O)[C@@H](N)Cc1ccc(O)cc1)[C@@H](C)O)[C@@H](C)O)[C@@H](C)CC)[C@@H](C)CC)C(=O)N[C@@H](CCC(=O)O)C(=O)NCC(=O)NCC(=O)N1CCC[C@H]1C(=O)N[C@@H](CO)C(=O)N[C@@H](CO)C(=O)NCC(N)=O
B3: Example 58 (peptide)
peptide: Y[Aib]EGTFTSDYSSLLDKK([AEEA-AEEA-γGlu-C20 diacid])AQ[Aib]AFIEYLIEGGPSSGAPPPS-NH2
modifications: N-terminus assumed
SMILES: CC[C@H](C)[C@H](NC(=O)[C@H](CC(C)C)NC(=O)[C@H](Cc1ccc(O)cc1)NC(=O)[C@H](CCC(=O)O)NC(=O)[C@@H](NC(=O)[C@H](Cc1ccccc1)NC(=O)[C@H](C)NC(=O)C(C)(C)NC(=O)[C@H](CCC(N)=O)NC(=O)[C@H](C)NC(=O)[C@H](CCCCNC(=O)COCCOCCNC(=O)COCCOCCNC(=O)CC[C@H](NC(=O)CCCCCCCCCCCCCCCCCCC(=O)O)C(=O)O)NC(=O)[C@H](CCCCN)NC(=O)[C@H](CC(=O)O)NC(=O)[C@H](CC(C)C)NC(=O)[C@H](CC(C)C)NC(=O)[C@H](CO)NC(=O)[C@H](CO)NC(=O)[C@H](Cc1ccc(O)cc1)NC(=O)[C@H](CC(=O)O)NC(=O)[C@H](CO)NC(=O)[C@@H](NC(=O)[C@H](Cc1ccccc1)NC(=O)[C@@H](NC(=O)CNC(=O)[C@H](CCC(=O)O)NC(=O)C(C)(C)NC(=O)[C@@H](N)Cc1ccc(O)cc1)[C@@H](C)O)[C@@H](C)O)[C@@H](C)CC)C(=O)N[C@@H](CCC(=O)O)C(=O)NCC(=O)NCC(=O)N1CCC[C@H]1C(=O)N[C@@H](CO)C(=O)N[C@@H](CO)C(=O)NCC(=O)N[C@@H](C)C(=O)N1CCC[C@H]1C(=O)N1CCC[C@H]1C(=O)N1CCC[C@H]1C(=O)N[C@@H](CO)C(N)=O
B4: Example 70 (peptide)
peptide: Y[Aib]EGTFTSDK([AEEA-AEEA-γGlu-C20 diacid])SILLDKIAQ[Aib]AFIEYLIEGG-NH2
modifications: N-terminus assumed
SMILES: CC[C@H](C)[C@H](NC(=O)[C@H](CCCCN)NC(=O)[C@H](CC(=O)O)NC(=O)[C@H](CC(C)C)NC(=O)[C@H](CC(C)C)NC(=O)[C@@H](NC(=O)[C@H](CO)NC(=O)[C@H](CCCCNC(=O)COCCOCCNC(=O)COCCOCCNC(=O)CC[C@H](NC(=O)CCCCCCCCCCCCCCCCCCC(=O)O)C(=O)O)NC(=O)[C@H](CC(=O)O)NC(=O)[C@H](CO)NC(=O)[C@@H](NC(=O)[C@H](Cc1ccccc1)NC(=O)[C@@H](NC(=O)CNC(=O)[C@H](CCC(=O)O)NC(=O)C(C)(C)NC(=O)[C@@H](N)Cc1ccc(O)cc1)[C@@H](C)O)[C@@H](C)O)[C@@H](C)CC)C(=O)N[C@@H](C)C(=O)N[C@@H](CCC(N)=O)C(=O)NC(C)(C)C(=O)N[C@@H](C)C(=O)N[C@@H](Cc1ccccc1)C(=O)N[C@H](C(=O)N[C@@H](CCC(=O)O)C(=O)N[C@@H](Cc1ccc(O)cc1)C(=O)N[C@@H](CC(C)C)C(=O)N[C@H](C(=O)N[C@@H](CCC(=O)O)C(=O)NCC(=O)NCC(N)=O)[C@@H](C)CC)[C@@H](C)CC
B5: Example 71 (peptide)
peptide: Y[Aib]EGTFTSDYSILK([AEEA-AEEA-γGlu-C20 diacid])DKIAQ[Aib]AFIEYLIEGG-NH2
modifications: N-terminus assumed
SMILES: CC[C@H](C)[C@H](NC(=O)[C@H](CCCCN)NC(=O)[C@H](CC(=O)O)NC(=O)[C@H](CCCCNC(=O)COCCOCCNC(=O)COCCOCCNC(=O)CC[C@H](NC(=O)CCCCCCCCCCCCCCCCCCC(=O)O)C(=O)O)NC(=O)[C@H](CC(C)C)NC(=O)[C@@H](NC(=O)[C@H](CO)NC(=O)[C@H](Cc1ccc(O)cc1)NC(=O)[C@H](CC(=O)O)NC(=O)[C@H](CO)NC(=O)[C@@H](NC(=O)[C@H](Cc1ccccc1)NC(=O)[C@@H](NC(=O)CNC(=O)[C@H](CCC(=O)O)NC(=O)C(C)(C)NC(=O)[C@@H](N)Cc1ccc(O)cc1)[C@@H](C)O)[C@@H](C)O)[C@@H](C)CC)C(=O)N[C@@H](C)C(=O)N[C@@H](CCC(N)=O)C(=O)NC(C)(C)C(=O)N[C@@H](C)C(=O)N[C@@H](Cc1ccccc1)C(=O)N[C@H](C(=O)N[C@@H](CCC(=O)O)C(=O)N[C@@H](Cc1ccc(O)cc1)C(=O)N[C@@H](CC(C)C)C(=O)N[C@H](C(=O)N[C@@H](CCC(=O)O)C(=O)NCC(=O)NCC(N)=O)[C@@H](C)CC)[C@@H](C)CC
B6: Example 57 (peptide)
peptide: YXEGTXTSDYSILLDKKAQXAFIEYLIEGGPSSGAPPPS
modifications: Aib2; αMeF6; K17((2-[2-(2-Amino-ethoxy)-ethoxy]-acetyl)2-(γ-Glu)-CO-(CH2)18-CO2H); Aib20; C-terminal NH2
B7: Example 68 (peptide)
peptide: B6 peptide with X6F, S11X
modifications: Aib2; αMeS11; K17((2-[2-(2-Amino-ethoxy)-ethoxy]-acetyl)2-(γ-Glu)-CO-(CH2)18-CO2H); Aib20; C-terminal NH2
B8: Example 67 (peptide)
peptide: B6 peptide with X6F, F22X
modifications: Aib2; K17((2-[2-(2-Amino-ethoxy)-ethoxy]-acetyl)2-(γ-Glu)-CO-(CH2)18-CO2H); Aib20; αMeF22; C-terminal NH2
B9: Example 69 (peptide)
peptide: B6 peptide with L13X
modifications: not fully specified; Aib2; αMeF6; αMeF13 as printed (likely αMeL13); K17((2-[2-(2-Amino-ethoxy)-ethoxy]-acetyl)2-(γ-Glu)-CO-(CH2)18-CO2H); Aib20; C-terminal NH2
B10: Example 66 (peptide)
peptide: B6 peptide with X6F, L13X, K16E, I27L
modifications: not fully specified; Aib2; αMeF13 as printed (likely αMeL13); K17((2-[2-(2-Amino-ethoxy)-ethoxy]-acetyl)2-(γ-Glu)-CO-(CH2)18-CO2H); Aib20; C-terminal NH2

Each binder was assayed against T1, human GIP receptor (assay: cell-based or functional assay).

Binder | hGIPR cAMP EC50 ratio | hGIPR cAMP Rel EC50 [nM]
B1 | 1.69 | 0.096
B2 | 1.96 | 0.0794
B3 | 0.522 | 0.266
B4 | 0.351 | 0.48
B5 | 1.02 | 0.166
B6 | 1.74 | 0.0849
B7 | 1.67 | 0.0881
B8 | 1.61 | 0.0913
B9 | 2.73 | 0.0712
B10 | 1.89 | 0.0743

These binders were tested against human GLP-1 receptor (human, UniProt P43220 24-463) (assay: cell-based or functional assay).

Binder | hGLP1R cAMP EC50 ratio | hGLP1R cAMP Rel EC50 [nM]
B1 | 0.426 | 0.153
B2 | 0.675 | 0.0961
B3 | 0.378 | 0.18
B4 | 0.207 | 0.283
B5 | 0.0604 | 1.02
B6 | 0.996 | 0.0668
B7 | 0.354 | 0.153
B8 | 0.123 | 0.447
B9 | 0.85 | 0.0844
B10 | 0.255 | 0.285

Source: US20220048967A1 (published 2022)
